Biological target: KDR/Flk-1 antibody
Experiment: cell-based or functional assay

Question: Which results are given for “PABA.CAE retroviral vector (Protein A at BstEII and Avr + Wild Type CAE env) (from UniProt P38507 212-269)”?
Answer: # Blue Colonies (X-gal) on 5 x 10^5 KSY1 cells/well contacted with 1000 ng KDR/Flk-1 Ab, MOI = 4 (blue colonies): 648; # Blue Colonies (X-gal) on 5 x 10^5 KSY1 cells/well contacted with 5000 ng KDR/Flk-1 Ab, MOI = 4 (blue colonies): 946

Question: How did the # Blue Colonies (X-gal) on 1 x 10^5 KSY1 cells/well contacted with 1000 ng KDR/Flk-1 Ab, MOI = 10 (blue colonies) turn out when “PABN.CAE retroviral vector (Protein A at BstEII and Ngo + Wild Type CAE env) (from UniProt P38507 212-269)” was run?
Answer: The # Blue Colonies (X-gal) on 1 x 10^5 KSY1 cells/well contacted with 1000 ng KDR/Flk-1 Ab, MOI = 10 (blue colonies) was 1560.

Question: And the # Blue Colonies (X-gal) on 1 x 10^5 KSY1 cells/well contacted with 5000 ng KDR/Flk-1 Ab, MOI = 10 (blue colonies)?
Answer: The # Blue Colonies (X-gal) on 1 x 10^5 KSY1 cells/well contacted with 5000 ng KDR/Flk-1 Ab, MOI = 10 (blue colonies) was 2550.

Question: What does the source list for “wild-type CAE virions (Wild Type CAE env, amphotropic)”?
Answer: # Blue Colonies (X-gal) on 1 x 10^5 KSY1 cells/well contacted with 5000 ng KDR/Flk-1 Ab, MOI = 10 (blue colonies): 20; # Blue Colonies (X-gal) on 5 x 10^5 KSY1 cells/well contacted with 5000 ng KDR/Flk-1 Ab, MOI = 4 (blue colonies): 66

Source: patent publication US20030129163A1
